Data taken from the RNAGym collection of RNA variant scans (doi:10.1073/pnas.2313332121).
Variants at the floor of the assay were thinned out.

B1: TPR 5TU (parent)
chain: GGAUCUUCUCGAUCUAACAAAAAAGACAAAUCUGCCACAAAGCUUGAGAGCAUCUUCGGAUGCAGAGGCGGCAGCCUUCGGUGGCGCGAUAGCGCCAACGUUCUCAACUAUGACACGCAAAACGCGUGCUCCGUUGAAUGGAGUUUAUCAUG

Variants of: B1
Assay: polymerase ribozyme fitness, log enrichment relative to wild type (log ratio); higher = more active; in vitro selection for triplet polymerase activity
How it was run: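 PCR was used to build mutant libraries for each subunit of a heterodimeric triplet polymerase ribozyme, which were then transcribed. A single in vitro selection round, in triplicate, used a frozen incubation at −7 °C and recovered extended constructs by gel excision, streptavidin beads and RT-PCR. Fitness is the logarithm of genotype enrichment relative to wild-type enrichment, averaged over replicates with inverse-variance weights. The logarithm is base 2, and after Illumina sequencing only genotypes with ≥10 input reads and ≥1 read per output were kept.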

First: C63A C85G C95U C118U
Second: C93U C95G
The “polymerase ribozyme fitness (log ratio)” value of the first is lower: -2.65 for the first, -2.26 for the second.

Compared with A19C C96U A106G A120C, A17G A113C is lower in “polymerase ribozyme fitness (log ratio)” value: 0.311 for the first, -2.83 for the second.

Going from A21U G50U to A39C A40C A41C G42C G46U G59C C87A U90G U127G G152U, the “polymerase ribozyme fitness (log ratio)” value falls from 0.281 to no more than -4.2.

Going from A20G A91U to C51U C93U, the “polymerase ribozyme fitness (log ratio)” value rises from no more than -4.2 to -2.53.

First: A3G A17U C85A A106G A107U C118G U134A A142G C149U
Second: C51U A73G G92U
The “polymerase ribozyme fitness (log ratio)” value of the first is lower: no more than -4.2 for the first, -0.595 for the second.

A40U G50C C85G C99U A137U U148G and U53A C96U C99U G143C cannot be ordered by “polymerase ribozyme fitness (log ratio)” value: no more than -4.2 for the first, no more than -4.2 for the second.

Compared with G42C C105G, U61G C99U is higher in “polymerase ribozyme fitness (log ratio)” value: no more than -4.2 for the first, -2.77 for the second.

First: C43U A106G
Second: A3U A12G A22C A37U A47G A97G
The “polymerase ribozyme fitness (log ratio)” value of the first is lower: no more than -4.2 for the first, -3.5 for the second.

Going from A12C U15C A40U C99G to U56A C75U G143A, the “polymerase ribozyme fitness (log ratio)” value falls from -0.411 to -0.711.

First: A40U G58C A113C G124A
Second: A19C C43U U61G A64C U77G C85U A110U C116G
The “polymerase ribozyme fitness (log ratio)” value of the first is higher: -2.93 for the first, no more than -4.2 for the second.

First: A41G C93A G124U
Second: G11A U104A A119U G136A U144A
The “polymerase ribozyme fitness (log ratio)” value of the first is higher: -1.5 for the first, -2.19 for the second.

Compared with G58A C75U A91G C95G, A19G G50A is higher in “polymerase ribozyme fitness (log ratio)” value: no more than -4.2 for the first, -2.14 for the second.

Going from A52G U78C to C63U G70A C85G A138C, the “polymerase ribozyme fitness (log ratio)” value falls from -0.764 to no more than -4.2.

A16U C54A G81A C85U C114U G136U G143U C149G and U15C A26U C57G G59U C87A G88A A107U U148G cannot be ordered by “polymerase ribozyme fitness (log ratio)” value: no more than -4.2 for the first, no more than -4.2 for the second.

A26U U33A A47G G62A G94U C105U A110U and U44G G92U cannot be ordered by “polymerase ribozyme fitness (log ratio)” value: no more than -4.2 for the first, no more than -4.2 for the second.

Going from C36U A41G C95A A122G to A17C C95A C103G C108G, the “polymerase ribozyme fitness (log ratio)” value falls from -0.35 to no more than -4.2.

A24C C51U C105G and G126A C132U A142C cannot be ordered by “polymerase ribozyme fitness (log ratio)” value: no more than -4.2 for the first, no more than -4.2 for the second.

Compared with A12C A52G, C35U G71U is lower in “polymerase ribozyme fitness (log ratio)” value: -0.179 for the first, -3.53 for the second.

U31G G65U and U7G A40U C43G A91U cannot be ordered by “polymerase ribozyme fitness (log ratio)” value: no more than -4.2 for the first, no more than -4.2 for the second.

First: A52C C93G
Second: U6C C87A G88U C96A A120U C123U
The “polymerase ribozyme fitness (log ratio)” value of the first is higher: -3.65 for the first, no more than -4.2 for the second.

First: G46C C99G U101G C105G G124A
Second: A24G U31A C38G U53A C57A U77C G83A A137C
The “polymerase ribozyme fitness (log ratio)” value of the first is higher: -2.54 for the first, no more than -4.2 for the second.

First: A39U A41U U56A G71A
Second: C69G C103A U144G
The “polymerase ribozyme fitness (log ratio)” value of the first is lower: no more than -4.2 for the first, -1.57 for the second.

U53C C93G C99G C118A G126A U146G and A16G A17G C18A G58C A60G C95A U144C A150C cannot be ordered by “polymerase ribozyme fitness (log ratio)” value: no more than -4.2 for the first, no more than -4.2 for the second.

Compared with A24G C99U, A24U C131U is higher in “polymerase ribozyme fitness (log ratio)” value: -3.56 for the first, 2.4 for the second.

Compared with G124C G140C, A49G G94A U127C is higher in “polymerase ribozyme fitness (log ratio)” value: -4.05 for the first, -3.23 for the second.

Going from A52G A89U G124U G136C to U55A U77A, the “polymerase ribozyme fitness (log ratio)” value falls from -3.18 to no more than -4.2.

Compared with C5U C54U U82A C95G A147U, U6A G11U A23C G25A C36A G50C C125U is lower in “polymerase ribozyme fitness (log ratio)” value: -1.27 for the first, no more than -4.2 for the second.

Compared with G94A A97U, G68U C85U U144A is lower in “polymerase ribozyme fitness (log ratio)” value: -1 for the first, -4.15 for the second.

Compared with A17G C36U C93G, U7G C18U A19U A28U C85A C87U A97U is lower in “polymerase ribozyme fitness (log ratio)” value: -3.8 for the first, no more than -4.2 for the second.

Going from A3U C96A to U4G C54G A64U C95U U134G, the “polymerase ribozyme fitness (log ratio)” value falls from -0.199 to no more than -4.2.

First: C63A A107C U111C A122G
Second: U7A A119G A120C
The “polymerase ribozyme fitness (log ratio)” value of the first is lower: no more than -4.2 for the first, -3.25 for the second.

Compared with C14U A17U A24U C76A C85U, A23U G42C C75U U82G G84U C96A is lower in “polymerase ribozyme fitness (log ratio)” value: -3.79 for the first, no more than -4.2 for the second.

First: C85U C96U
Second: A73U C105G
The “polymerase ribozyme fitness (log ratio)” value of the first is higher: -0.746 for the first, -3.79 for the second.

Compared with U9G A20C C32G A89C U144A, C18G A20U G84U is higher in “polymerase ribozyme fitness (log ratio)” value: no more than -4.2 for the first, -3.75 for the second.

Compared with C76G A115G A121U, G84A C118A is higher in “polymerase ribozyme fitness (log ratio)” value: no more than -4.2 for the first, -1.61 for the second.

First: C14G A40C C57G
Second: G11U A17C A37U A121U A122U
The “polymerase ribozyme fitness (log ratio)” value of the first is higher: -2.31 for the first, -3.25 for the second.

Going from G80A C114U A137C to G71U A147C, the “polymerase ribozyme fitness (log ratio)” value rises from -3.92 to -3.65.

U9C A16U A21G G70C G92U G143U U145G and A52U A91U U139G U144A cannot be ordered by “polymerase ribozyme fitness (log ratio)” value: no more than -4.2 for the first, no more than -4.2 for the second.

A107U A110U C114U and G70C C103G A120G U127C U134C cannot be ordered by “polymerase ribozyme fitness (log ratio)” value: no more than -4.2 for the first, no more than -4.2 for the second.

Going from G46C C87U A98G G117U A142U to C132U G152U, the “polymerase ribozyme fitness (log ratio)” value rises from no more than -4.2 to -2.75.

A49C G74C C87A C125U and A39G G58U G59C G124C G136A cannot be ordered by “polymerase ribozyme fitness (log ratio)” value: no more than -4.2 for the first, no more than -4.2 for the second.

With G62A A73C C75G C87U C103G C132G U145G U146A the “polymerase ribozyme fitness (log ratio)” value was no more than -4.2.
